The values that follow are results of earlier work, collected in publication doi:10.1101/2024.11.09.622800.

Read-outs that look alike come from different tables or passages of the source.

What is called pKa is the negative logarithm of the acid dissociation constant.

In data set [1] the target is Asp85 (UniProt position 98, WARYADWLFTT).
Data set [2] concerns the target Asp75 (UniProt position 122, TWREADINYTS).
Data set [3] concerns the target Cys48 (UniProt position 48, SLKASCLYGQL).
For data set [4], the target named is Glu325 (UniProt position 325, TLHMFEVPFLL).
The target in data set [5] is Lys132 (UniProt position 214, KSEAQKKKEKL). The experiment in a line: stability.
Data set [6] addresses Asp118 (UniProt position 200, YVYKPDNTHEQ). The experiment in a line: stability.
In data set [7] the target is Asp41 (UniProt position 123, LLLVDDPETKH). The data set is described as follows: stability.
Data set [8] addresses Asp26 (UniProt position 26, KLVVVDFSATW).
Data set [9] addresses Glu172 (UniProt position 200, QVMATEGYQSS).

For the substance “Bacteriorhodopsin (Halobacterium salinarum (not stated in the article))”, the pKa is on record as 7.2 in data set [1] (conformational state associated by the authors with PDB 1IW6) and 2.6 in data set [1] (conformational state associated by the authors with PDB 1UCQ (retinal forms a salt bridge with Asp85)).
Regarding “Barnase (Bacillus amyloliquefaciens (not stated in the article))”, the pKa in [2] is 3.1.
In the case of Glutathione S-transferase (PDB 5X79), the pKa in data set [3] is 3.7.
Take “Lactose permease LacY (Escherichia coli (not stated in the article))”: in data set [4], the pKa was 10.5.
In the case of “Staphylococcal nuclease (SNase) A132K variant (Staphylococcus aureus; A132K)”, the pKa in data set [5] is 10.4.
Regarding “Staphylococcal nuclease (SNase) N118D variant (Staphylococcus aureus; N118D)”, in [6], the pKa is listed as 7.0.
For “Staphylococcal nuclease (SNase) T41D variant (Staphylococcus aureus; T41D)”, the pKa result in [7] is listed as “∼4”.
For the substance Thioredoxin (Homo sapiens), the pKa was 8.1 in data set [8] (oxidized) and 9.9 in data set [8] (reduced).
Turning to “Xylanase (endo-1,4-beta-xylanase), wild type (Bacillus circulans (not stated in the article))”, in [9], the pKa is listed as 6.7.
Regarding “Xylanase, mutant with Glu78 covalently linked to substrate (PDB 3VZO) (Bacillus circulans (not stated in the article); not stated (the article says only that 'another nearby residue is mutated'))”, the pKa in data set [9] (Glu78 covalently linked to substrate (covalent intermediate), nearby residue mutated) was 2.8.
